Read-outs that look alike come from different tables or passages of the source.
Assays:
[1] = target: HLA-A*0203 (human); assay: inhibition of 125I-labelled probe peptide binding to purified HLA; gel filtration; conditions: remark: other sources report otherwise
[2] = target: HLA-A*0201 (human); assay: as above; conditions: remark: other sources report otherwise
[3] = target: HLA-A*0202 (human); assay: as above; conditions: remark: other sources report otherwise
[4] = target: HLA-A*0301 (human); assay: competition with 125I-labelled standard peptide on purified HLA-A*0301, gel filtration
[5] = target: HLA-A*0301 (human); assay: competition with 125I-labelled standard peptide for purified HLA-A*0301, gel filtration; ratio to the A*0301 standard peptide 941.12 [..] (11 nM)
[6] = target: HLA-A*1101 (human); assay: competition with a 125I-labelled standard peptide for purified HLA-A*1101, gel filtration; conditions: scale: ratio
[7] = target: HLA-A*0203 (human); assay: inhibition of 125I-labelled probe peptide binding to purified HLA, gel filtration
[8] = target: HLA-A*0202 (human); assay: as above
[9] = target: HLA-A*6802 (human); assay: as above
[10] = target: HLA-A*0206 (human); assay: as above
[11] = target: HLA-A*0101 (human); assay: competition with 125I-labeled standard peptide for purified HLA-A*0101, gel filtration
[12] = target: HLA-A*0203 (human); assay: competition with 125I standard peptide for purified HLA; gel filtration
[13] = target: HLA-A*0206 (human); assay: as above
[14] = target: HLA-A*0201 (human); assay: inhibition of 125I-labelled probe peptide binding to purified HLA, gel filtration
[15] = target: HLA-A*0101 (human); assay: competition with 125I-labelled standard peptide for purified HLA-A*0101, gel filtration
[16] = target: HLA-A*1101 (human); assay: competition with 125I-labelled standard peptide for purified HLA-A*1101, gel filtration
[17] = target: HLA-A*0201 (human); assay: competition with 125I standard peptide for purified HLA; gel filtration
[18] = target: HLA-A*0202 (human); assay: as above
[19] = target: HLA-A*0201 (human); assay: inhibition of 125I-labelled standard peptide binding to purified HLA-A*0201, gel filtration
[20] = target: HLA-A*6802 (human); assay: inhibition of 125I-labelled standard peptide binding to purified HLA-A*6802, gel filtration
[21] = target: HLA-A*0203 (human); assay: inhibition of 125I-labelled standard peptide binding to purified HLA-A*0203, gel filtration
[22] = target: HLA-A*0202 (human); assay: inhibition of 125I-labelled standard peptide binding to purified HLA-A*0202, gel filtration
[23] = target: HLA-A*0206 (human); assay: inhibition of 125I-labelled standard peptide binding to purified HLA-A*0206, gel filtration
[24] = remark: other sources report otherwise

GVSIWNPIV (modifications not checked) [peptide 60.0207 (PAP.128.V9)]
IC50 [1]: 909 nM | IC50 [2]: 455 nM | IC50 [3]: 269 nM

LLSYPNKTH (modifications not checked) [… (PSM, position 116)]
binding affinity ratio (IC50 of standard peptide / IC50 of test peptide) [4]: 0.0006

DIESKVDPSK (modifications not checked) [PSM 714 peptide …]
binding affinity ratio (IC50 of standard peptide / IC50 of test peptide) [5]: 0.0003 | binding affinity ratio [6]: 0.0002

HLLSNDMCARV (modifications not checked) [Peptide 1418.67 (HuK2.177.V11) …]
IC50 [7, 24]: 5.3 nM | IC50 [8, 24]: 1.3 nM | IC50 [9, 24]: 860 nM | IC50 [10, 24]: 37 nM

AGESFPGIY (modifications not checked) [… (PSM, position 701)]
binding affinity ratio (IC50 of standard peptide / IC50 of test peptide) [11]: 0.004

LTFFWLDRSV (modifications not checked) [Peptide 1418.23 … (PAP.21.T2)]
IC50 [12]: 9.6 nM | IC50 [13]: 43 nM

SLQCVSLHL (modifications not checked) [Peptide 60.0191 (HuK2.170) …]
IC50 [7, 24]: 417 nM | IC50 [14, 24]: 500 nM | IC50 [8, 24]: 51 nM | IC50 [9, 24]: 2580 nM

WGEVKRQIY (modifications not checked) [… (PSM, position 725)]
binding affinity ratio (IC50 of standard peptide / IC50 of test peptide) [15]: 0.001

LLPPYASCH (modifications not checked) [… (PAP, position 306)]
binding affinity ratio (IC50 of standard peptide / IC50 of test peptide) [4]: 0.001

LTQLGMEQHY (modifications not checked) [… (PAP, position 70)]
binding affinity ratio (IC50 of standard peptide / IC50 of test peptide) [15, 24]: 0.62

LSLLSLYGIH (modifications not checked) [… (PAP, position 241)]
binding affinity ratio (IC50 of standard peptide / IC50 of test peptide) [4]: 0.0003

EIASKFSER (modifications not checked) [PSM 641 peptide …]
binding affinity ratio [6]: 0.0002

LLHETDSAVA (modifications not checked) [… (PSM, position 4)]
binding affinity ratio (IC50 of standard peptide / IC50 of test peptide) [4]: 0.0005

KAENIKKFLY (modifications not checked) [… (PSM, position 66)]
binding affinity ratio (IC50 of standard peptide / IC50 of test peptide) [11]: 0.0001

CSPSCPLER (modifications not checked) [PAP 347 peptide …]
binding affinity ratio (IC50 of standard peptide / IC50 of test peptide) [5]: 0.004

DMSLLKNR (modifications not checked) [PSA 98 peptide DMSLLKNR]
binding affinity ratio (IC50 of standard peptide / IC50 of test peptide) [5]: 0.0003 | binding affinity ratio [6]: 0.0001

TAAHCIRNK (modifications not checked) [PSA 58 …]
binding affinity ratio (IC50 of standard peptide / IC50 of test peptide) [16, 24]: 0.014

CSGKIVIARY (modifications not checked) [PSM 196 peptide …]
binding affinity ratio (IC50 of standard peptide / IC50 of test peptide) [5, 24]: 0.06

SLSLGFLFLV (modifications not checked) [Peptide 1419.52 … (PAP.13.V10)]
IC50 [12]: 17 nM | IC50 [17]: 1.8 nM | IC50 [18]: 3.9 nM | IC50 [13]: 42 nM

DVLLSYPNK (modifications not checked) [PSM 114 peptide …]
binding affinity ratio [6]: 0.001

SLQCVSLHLL (modifications not checked) [Peptide 1419.66 (HuK2.170) …]
IC50 [14, 24]: 263 nM | IC50 [8, 24]: 4.9 nM | IC50 [9, 24]: 5000 nM | IC50 [10, 24]: 446 nM

RGAVEPDRY (modifications not checked) [… (PSM, position 363)]
binding affinity ratio (IC50 of standard peptide / IC50 of test peptide) [15]: 0.0001

TYELVEKFY (modifications not checked) [… (PSM, position 558)]
binding affinity ratio (IC50 of standard peptide / IC50 of test peptide) [15]: 0.001

LFEPPPPGY (modifications not checked) [… (PSM, position 143)]
binding affinity ratio (IC50 of standard peptide / IC50 of test peptide) [11]: 0.001

LPERPSLY (modifications not checked) [LPERPSLY (PSA, position 232)]
binding affinity ratio (IC50 of standard peptide / IC50 of test peptide) [11]: 0.0002

DTFPTDPIK (modifications not checked) [PAP 51 peptide …]
binding affinity ratio [6]: 0.0001

CALPEKPA (modifications not checked) [CALPEKPA (Kallikrein, position 234)]
binding affinity ratio (IC50 of standard peptide / IC50 of test peptide) [19]: -0.0001 | binding affinity ratio (IC50 of standard peptide / IC50 of test peptide) [20]: -0.0001 | binding affinity ratio (IC50 of standard peptide / IC50 of test peptide) [21]: -0.0001 | binding affinity ratio (IC50 of standard peptide / IC50 of test peptide) [22]: -0.0001 | binding affinity ratio (IC50 of standard peptide / IC50 of test peptide) [23]: -0.0001

TLVFRHGDR (modifications not checked) [PAP 39 …]
binding affinity ratio (IC50 of standard peptide / IC50 of test peptide) [16]: 0.0002

EPALGTTCY (modifications not checked) [… (Kallikrein, position 145; PSA, position 141)]
binding affinity ratio (IC50 of standard peptide / IC50 of test peptide) [11]: 0.0011

CLKKNSQV (modifications not checked) [CLKKNSQV (Kallikrein, position 66)]
binding affinity ratio (IC50 of standard peptide / IC50 of test peptide) [19]: 0.0001 | binding affinity ratio (IC50 of standard peptide / IC50 of test peptide) [20]: -0.0001 | binding affinity ratio (IC50 of standard peptide / IC50 of test peptide) [21]: 0.0006 | binding affinity ratio (IC50 of standard peptide / IC50 of test peptide) [22]: 0.0006 | binding affinity ratio (IC50 of standard peptide / IC50 of test peptide) [23]: -0.0001

FMLCAGLWV (modifications not checked) [Peptide 1418.22 … (HuK2.195.V9)]
IC50 [13, 24]: 51 nM

SLHLLSNDMCV (modifications not checked) [Peptide 1418.66 (HuK2.175.V11) …]
IC50 [7, 24]: 10 nM | IC50 [14, 24]: 8.6 nM | IC50 [8, 24]: 0.8 nM | IC50 [9, 24]: 2160 nM | IC50 [10, 24]: 2310 nM

TGQVFQVSH (modifications not checked) [PSA 82 …]
binding affinity ratio (IC50 of standard peptide / IC50 of test peptide) [16]: 0.0002

LLEKMGGSA (modifications not checked) [… (PSM, position 305)]
binding affinity ratio (IC50 of standard peptide / IC50 of test peptide) [4]: 0.0006

DALFDIESK (modifications not checked) [PSM 710 peptide …]
binding affinity ratio (IC50 of standard peptide / IC50 of test peptide) [5]: 0.0006

GMPEGDLVY (modifications not checked) [PSM 168 peptide …]
binding affinity ratio (IC50 of the standard peptide / IC50 of the test peptide) [16]: 0.0002

TLRGAVEPDR (modifications not checked) [PSM 361 …]
binding affinity ratio (IC50 of standard peptide / IC50 of test peptide) [16]: 0.0002

ALDVYNGLL (modifications not checked) [peptide 1177.02 (PAP.299)]
IC50 [1]: 256 nM | IC50 [2]: 73 nM

SLQCVSLHLV (modifications not checked) [Peptide 1418.52 (HuK2.170.V10) …]
IC50 [7]: 2.8 nM | IC50 [14]: 13 nM | IC50 [8]: 6.3 nM | IC50 [9]: 205 nM | IC50 [10]: 5.2 nM
